Assay results reported in paper PMC8635433 (Science Advances, 2021).

Target: coxsackie and adenovirus receptor (CAR), immobilised for SPR (UniProt P78310 20-365)
Experiment: SPR; BIAcore T200; about 2000 RU of CAR, DSG2 and CD46 amine-coupled to a CM5 chip; fiber knob proteins flowed over, 1:2 serial dilutions; 25°C, PBS with 0.001% P20, 30 μl/min; 1:1 interaction model
Conditions: both partners purified

Sequence of coxsackie and adenovirus receptor (CAR), immobilised for SPR (P78310 20-365): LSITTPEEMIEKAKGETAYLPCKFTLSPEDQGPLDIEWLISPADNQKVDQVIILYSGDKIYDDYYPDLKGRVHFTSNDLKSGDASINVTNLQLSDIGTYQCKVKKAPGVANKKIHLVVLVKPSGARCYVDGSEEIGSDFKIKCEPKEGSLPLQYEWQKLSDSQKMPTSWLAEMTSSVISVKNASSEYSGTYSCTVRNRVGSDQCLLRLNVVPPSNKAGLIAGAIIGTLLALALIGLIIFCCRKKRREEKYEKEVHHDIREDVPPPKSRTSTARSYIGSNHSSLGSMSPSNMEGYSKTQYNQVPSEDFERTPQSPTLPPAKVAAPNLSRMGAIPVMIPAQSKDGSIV

B1: HAdV-C5 fiber knob protein (domain or fragment)
chain: TGAITVGNKNNDKLTLWTTPAPSPNCRLNAEKDAKLTLVLTKCGSQILATVSVLAVKGSLAPISGTVQSAHLIIRFDENGVLLNNSFLDPEYWNFRNGDLTEGTAYTNAVGFMPNLSAYPKSHGKTAKSNIVSQVYLNGDKTKPVTLTITLNGTQETGDTTPSAYSMSFSWDWSGHNYINEIFATSSYTFSYIAQE
notes: source: recombinant soluble knob protein, purified
In the case of B1, the Kd is reported as 0.06 nM.
